The text below walks through data of PMC6648591 (ACS Omega, 2019).

The target of data set [1] is T1, mature RmL (Rhizomucor miehei lipase) (Rhizomucor miehei, UniProt P19515).
T1 construct: mature RmL; 95–363; 29,537.7; 29,538.2; made in house; host or cells: Aspergillus oryzae
T1 sequence (P19515 whole entry, looked up): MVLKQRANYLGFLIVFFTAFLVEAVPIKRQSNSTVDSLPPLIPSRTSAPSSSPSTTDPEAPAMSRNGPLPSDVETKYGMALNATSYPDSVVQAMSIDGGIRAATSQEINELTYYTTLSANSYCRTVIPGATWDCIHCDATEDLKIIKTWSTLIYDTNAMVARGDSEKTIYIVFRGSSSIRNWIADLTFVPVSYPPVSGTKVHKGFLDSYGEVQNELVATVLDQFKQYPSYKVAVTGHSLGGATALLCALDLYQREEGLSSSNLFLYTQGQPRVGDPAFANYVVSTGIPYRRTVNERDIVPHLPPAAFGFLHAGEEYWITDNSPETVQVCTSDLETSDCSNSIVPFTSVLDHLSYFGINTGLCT
Briefly: GLAD lipase assay: inhibition of mature RmL by propeptide. It is filed as biochemical. The following applies: isolated propeptide; RmL–propeptide molar ratio 1:64, 15 min incubation, 0.2 M HEPES, 1 mM CaCl2, 10 ppm Triton X-100, pH 8.5; substrate olive oil/4-methylumbelliferyl oleate on cellulose, detergent model B; room temperature; fluorescence 365/445 nm; Figure 4a. How it is done:
Inhibition of hydrolytic activity was determined by using the industrially relevant GLAD assay, measuring the release of 4-methylumbelliferone (4-MU) by purified mature RmL incubated with and without a propeptide (RmL–propeptide incubated at a molar ratio of 1:64) for 15 min in 0.2 M HEPES, 1 mM CaCl2, and 10 ppm Triton X-100 (adjusted to pH 8.5). As a substrate, we used cellulose cotton linters, Avicel PH-101 (Sigma-Aldrich, 11365), uniformly coated with a 4.5:1 mixture of olive oil (Sigma-Aldrich, O-1514) and 4-methylumbelliferyl oleate (oleic acid 4-methylumbelliferyl ester (Sigma-Aldrich, 75164): 4 mg/mL in n-hexane (Sigma-Aldrich, 15671)). The coated cellulose fibers were suspended in 0.2 M HEPES, 3 mM CaCl2, 0.5 mM MgCl2, and 10 ppm Triton X-100 mixed with 3.3 g/L detergent solution using detergent model B (model B composition: 1% (w/w) NaOH, 7.2% (w/w) LAS, 3% (w/w) SLES, 5.5% (w/w) soy and coco fatty acids, 6.6% (w/w) AEO, 3.33% (w/w) triethanol amine, 2% (w/w) Na-citrate, 0.5% (w/w) DTMPA, 6% (w/w) MPG, 3% EtOH, 1.7% (w/w) glycerol, 1% (w/w) sodium formate, 0.1% (w/w) PCA; adjusted to pH 8.5) and RmL −/+ propeptide. The enzyme activity at room temperature was followed by measuring the fluorescence (kinetic mode) every 30 s at an excitation wavelength of 365 nm and emission wavelength of 445 nm from 1 to 6 min. […]

A further data set relates to Rhizomucor miehei lipase. As to conditions: activity-related mutation in propeptide; cited from earlier work. From the text: The buried surface area between the propeptide and the mature enzyme is ∼1771.2 Å^2 (analyzed using PISA,[23] corresponding to a strong protein–protein interaction).[24] The most significant interactions between the propeptide and mature enzyme from the PISA analysis are given in Table S1 (Supporting Information). One of these interactions involves Leu81, which is one of the activity-related mutations identified in ref ([17]) and is a part of the hydrophobic cluster at the ...

Data set [2] concerns the target T2, mature Rhizomucor miehei lipase (Rhizomucor miehei, UniProt P19515 95-363).
T2 sequence (looked up): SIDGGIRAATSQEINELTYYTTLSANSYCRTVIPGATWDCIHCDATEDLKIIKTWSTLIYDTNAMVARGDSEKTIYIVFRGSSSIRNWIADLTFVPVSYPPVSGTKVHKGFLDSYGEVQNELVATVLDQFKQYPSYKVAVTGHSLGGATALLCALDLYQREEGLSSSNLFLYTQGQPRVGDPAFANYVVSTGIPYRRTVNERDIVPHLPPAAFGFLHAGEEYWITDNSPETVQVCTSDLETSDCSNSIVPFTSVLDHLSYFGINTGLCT
Briefly: fluorescence polarisation; 0.9 uM A488-labelled peptide mixed with mature RmL at 0.0002-10 uM, in duplicate; 50 mM HEPES pH 7.5, 100 mM NaCl, 1 mM CaCl2; 30 min at room temperature; Langmuir 1:1 fit. The following applies: both partners purified.

Data set [3] has as its target T2, mature Rhizomucor miehei lipase. Briefly: crystal structure; wild-type ProRmL sample, 10 mg/mL; 30% PEG8K, 0.1 M Na-cacodylate pH 6.5, 0.2 M ammonium sulfate; 293 K; molecular replacement with 3TGL. The following applies: both partners purified.
Data set [4] can be described thus: Zymogram of native PAGE (lipase activity on olive oil plate). It is filed as biochemical. As to conditions: native PAGE gel placed on agarose plate: 50 mM HEPES (pH 7), 0.625% polyvinyl alcohol, 1.9% (v/v) olive oil, 0.05% brilliant green; Figure 8C. An excerpt: The compositions for native PAGE were as follows. Resolving gel: 12% acrylamide-bis-acrylamide; 0.4 M Tris (pH 8.8), 0.1% APS, 0.04% TEMED. Stacking gel: 5.1% acrylamide-bis-acrylamide; 0.25 M Tris (pH 6.8), 0.1% APS, 0.1% TEMED. Loading dye: 0.06 M Tris (pH 6.8), 0.01% bromophenol blue, 10% glycerol. Running buffer: 3 g/L Tris base, 14.4 g/L glycine. Gel (B) is stained with brilliant blue. Zymogram: After electrophoresis, the native PAGE was placed on an agarose/brilliant blue plate (4% Litex HSB agarose protein grade, 50 mM HEPES (pH 7), 0.625% polyvinyl alcohol, 1.9% (v/v) olive oil, and 0.05% brilliant green (Sigma)).

Non-standard residues stand in square brackets, D forms with d. No end group written: not given here. pGlu = O=C1CC[C@@H](C(=O)O)N1

The Kd is the equilibrium constant for the complex coming apart.

B1: propeptide: Cleaved propeptide, separated from the mature enzyme, residues 30–94 (protein)
chain: [pGlu]SNSTVDSLPPLIPSRTSAPSSSPSTTDPEAPAMSRNGPLPSDVETKYGMALNATSYPDSVVQAM
modifications: also: N-glycosylation (GlcNAc after EndoH), site not given here, hexose at O-glycosylation site, site not given here
Regarding B1, in data set [1], the “inhibition of lipase activity” value is “clear inhibition of activity”.

B2: L81V: activity-related propeptide mutation L81V of R. miehei lipase identified in ref 17 (protein, UniProt P19515 25-363, looked up, variant L81V)
pro-form: VPIKRQSNSTVDSLPPLIPSRTSAPSSSPSTTDPEAPAMSRNGPLPSDVETKYGMAVNATSYPDSVVQAMSIDGGIRAATSQEINELTYYTTLSANSYCRTVIPGATWDCIHCDATEDLKIIKTWSTLIYDTNAMVARGDSEKTIYIVFRGSSSIRNWIADLTFVPVSYPPVSGTKVHKGFLDSYGEVQNELVATVLDQFKQYPSYKVAVTGHSLGGATALLCALDLYQREEGLSSSNLFLYTQGQPRVGDPAFANYVVSTGIPYRRTVNERDIVPHLPPAAFGFLHAGEEYWITDNSPETVQVCTSDLETSDCSNSIVPFTSVLDHLSYFGINTGLCT
modifications: pro-form
Turning to B2, the “activity of the mutant” value in the data set with Rhizomucor miehei lipase is recorded as “increased activity”.

The molecule SDVETKYGMALNATSYC(A488) [propeptide fragment SDVETKYGMALNATSYC-A488] displayed an equilibrium dissociation constant (Kd) in data set [2] of 200 nM.

B3: Rhizomucor miehei lipase propeptide (cleaved propeptide) (domain or fragment, UniProt P19515 30-94, looked up)
chain: [pGlu]SNSTVDSLPPLIPSRTSAPSSSPSTTDPEAPAMSRNGPLPSDVETKYGMALNATSYPDSVVQAM
modifications: also: N-glycosylation (GlcNAc after EndoH), site not given here, hexose at O-glycosylation site, site not given here
Take B3: in data set [3], the binding result is “binds”.

B4: mature RmL: the mature wild-type enzyme without propeptide, residues 95–363 (protein)
chain: SIDGGIRAATSQEINELTYYTTLSANSYCRTVIPGATWDCIHCDATEDLKIIKTWSTLIYDTNAMVARGDSEKTIYIVFRGSSSIRNWIADLTFVPVSYPPVSGTKVHKGFLDSYGEVQNELVATVLDQFKQYPSYKVAVTGHSLGGATALLCALDLYQREEGLSSSNLFLYTQGQPRVGDPAFANYVVSTGIPYRRTVNERDIVPHLPPAAFGFLHAGEEYWITDNSPETVQVCTSDLETSDCSNSIVPFTSVLDHLSYFGINTGLCT
For B4, the “lipase activity in zymogram at the band corresponding to mature RmL” value in data set [4] is listed as “much stronger in mature RmL than in wild-type ProRmL”.
